Substitutions are numbered along the chain they refer to. Like-named read-outs stand apart in the source and are kept apart here.

The target of test [1] is T1, 小鼠CD38胞外区 (mCD38) with C-terminal His tag, mCD38-his (mouse (mus musculus), UniProt P56528 45-304).
T1 construct: Recombinant, made in HEK293 cells; coated on the ELISA plate; not shown: His tag added at the C-terminus
T1 sequence: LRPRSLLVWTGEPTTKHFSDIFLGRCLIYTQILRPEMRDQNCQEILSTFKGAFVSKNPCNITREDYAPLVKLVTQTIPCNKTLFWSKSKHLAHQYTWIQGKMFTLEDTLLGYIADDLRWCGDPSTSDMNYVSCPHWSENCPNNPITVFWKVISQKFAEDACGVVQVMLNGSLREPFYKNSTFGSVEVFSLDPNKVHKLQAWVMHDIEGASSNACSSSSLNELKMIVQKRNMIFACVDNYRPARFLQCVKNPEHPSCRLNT
Briefly: ELISA, mCD38-his coated at 1.5 μg/ml, HRP anti-human IgG detection.

The target of test [2] is T2, 人CD38胞外区 (hCD38) with C-terminal His tag, hCD38-his (human (homo sapiens), UniProt P28907 43-300).
T2 construct: Recombinant, made in HEK293 cells; not shown: His tag added at the C-terminus
The test can be described thus: SPR (Biacore), antibody captured by anti-human Fc on CM5, hCD38 as analyte, 25 °C. (In general: In SPR one partner is held on a chip, and binding of the other changes the refractive index at the surface.)

The target of test [3] is T2, 人CD38胞外区 (hCD38) with C-terminal His …. Described as above. The source holds these as a separate data set.
Test [4] has as its target T3, 食蟹猴CD38胞外区 (mfCD38) with C-terminal His tag, mfCD38-his (cynomolgus monkey (Macaca fascicularis), UniProt Q5VAN0 44-301).
T3 construct: not shown: His tag added at the C-terminus
Briefly: SPR (Biacore), antibody captured by anti-human Fc on CM5, mfCD38 as analyte.

T3 sequence (Q5VAN0 44-301): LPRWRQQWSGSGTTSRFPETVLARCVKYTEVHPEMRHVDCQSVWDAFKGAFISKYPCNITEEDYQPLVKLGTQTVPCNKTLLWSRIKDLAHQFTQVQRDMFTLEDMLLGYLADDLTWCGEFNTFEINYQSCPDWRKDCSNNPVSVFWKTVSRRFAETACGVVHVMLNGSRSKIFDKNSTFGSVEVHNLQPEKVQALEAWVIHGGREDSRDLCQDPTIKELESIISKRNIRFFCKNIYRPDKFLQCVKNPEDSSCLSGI

B1: S5E3 (mouse-human chimeric antibody, human IgG1) (antibody)
scFv: QVQLQQSGPEVVKPGASVKMSCKATGYTSRSYWIEWVKQRPGHGLEWIGEILPGSGSTNYNEKFKGKATFTADTSSNTAYMQLSSLTSEDSAVYYCARWDGNYGDFVLDYWGQGTSVTVSSGGGGSGGGGSGGGGSDIQMTQSPSSMYASLGERVTITCKASQDINSYLSWFQQKPGKSPKTLIYRANRLVDGVPSRFSGSGSGQDYFLTISSLEYEDMGIYYCLQYDEFPYTFGGGTKLEMK
notes: Tested as a human IgG1-kappa/lambda chimeric antibody built from the variable domains of this scFv
Consider B1, for which, in test [1], the binding result is “no binding”.

B2: S5B5 (mouse-human chimeric antibody, human IgG1) (antibody)
scFv: QVKLQQFGAELVKPGASVKISCKATGYTFSSYWIGWVKQRPGHGLEWIGEILPGTGSTNYNEKFKDKATFTADTSPNTAYMQLSSLTSEDSAVYYCARWDGNYGDYALDYWGQGTSVTVSAGGGGSGGGGSGGGGSDIVMTQSPSSMYASLGERVTITCKASQDINSYLSWFQQKPGKSPKTLIYRANRLVDGVPSRFSGSGSGQDYSLTISSLEYEDMGIYYCLQYDEFPYTFGGGTKLEIK
notes: as for B1
Turning to B2, the binding result in test [1] was “no binding”.

B3: S5B4 (mouse-human chimeric antibody, human IgG1) (antibody)
scFv: QVKLQQSGAELMKPGASVKISCKATGYTFSSYWIGWLKQRPGHGLEWVGELLPGSGSTNYNEKFKGKATFTADTSSNTAYMQLSSLTSEDSAVYYCARWDGNYGDYTLDYWGQGTSVTVSSGGGGSGGGGSGGGGSDIVMTQSPSSMYASLGERVTITCKASQDINSYLSWFQQKPGKSPKTLIYRANRLVDGVPSRFSGSGSGQDYSLTISSLEYEDMGIYYCLQYDEFPYTFGGGTKLEMK
notes: as for B1
On to B3, for which the binding result in test [1] is “no binding”.

B4: S5B7 (mouse-human chimeric antibody, human IgG1) (antibody)
scFv: QVQLQQPGSVLVRPGASVKLSCKATGYTFSSYWIEWVKQRPGHGLEWIGDILPGTGTTNYNEKFKGKATFTADTSSNTAYMQFSSLTSEDSAVYYCASSYGNYVWGQGTSLTVSSGGGGSGGGGSGGGGSDVVMTQSPASLAVSLGQRATISCKASQSVDYDGDSYMNWYQQKPGQPPRLLIYAASNLESGIPARFSGSGSGTDFTLNIHPVEEEDAATYYCQQGNGAPRTFGGGTKLEIK
notes: as for B1
In the case of B4, in test [1], the binding result is listed as “no binding”.

B5: S5A10-h1 (antibody, human IgG1, V domains shown)
VH: QVQLVQSGAEVKKPGSSVKVSCKASDYPFISYTIHWVRQAPGQGLEWMGYINPSNGYTNYNQKFKDRVTITADKSTSTAYMELSSLRSEDTAVYYCARKYGNFYAMDYWGQGTLVTVSS
VL: DIQMTQSPSSLSASVGDRVTITCRASENIYSYLAWYQQKPGKAPKLLIYNAKTLAEGVPSRFSGSGSGTDFTLTISSLQPEDFATYYCQHHYGTPYTFGQGTKLEIK
notes: Humanized, expressed as a human IgG1 whole antibody; also called S5A10VH-h1+S5A10VK-h1; S5A10人源化分子
In test [2], B5 returned a Kd of 2.73 nM.

B6: S5B8 (mouse-human chimeric antibody, human IgG1) (antibody, V domains shown)
VH: QVQLQQSGSVLVRPGVSVKLSCKASGYAFTNSWMHWAKQRPGQGLEWIGEIHPQSGRTNYNEKFKGKATLTVDTSSSTAYVDFSSLTSEDSAVYYCARDLLQFGNQYYYAMDYWGQGTSVTVSS
VL: DVVMTQTPLSLPVSLGDQASISCRSSQSLVHSNGNTYLHWYLQKPGQSPKLLIYKVSNRFSGVPDRFSGSGSGTDFTLKISRVEAEDLGVYFCSQSTHVPLTFGAGTKLEMK
notes: Tested as a recombinant human IgG1-kappa/lambda mouse-human chimeric antibody; also called 鼠单抗S5B8
In the case of B6, the Kd stood at 0.178 nM in test [3] and 3.14 nM in test [4]. Further, the binding result in test [1] is given as “no binding”.

B7: S5B8VH-h2+S5B8VK-h2 (antibody, human IgG1, V domains shown)
VH: QVQLVQSGAEVKKPGASVKVSCKASGYAFTNSWMHWVRQAPGQGLEWMGEIHPQSGRTNYNEKFKGRVTMTRDTSTSTVYMELSSLRSEDTAVYYCARDLLQFGNQYYYAMDYWGQGTLVTVSS
VL: B6 VL with V2I, S14T, L15P, D17E, Q18P, K50Q, L88V, F92Y, A105Q, M111I
notes: Humanized, expressed as a human IgG1 whole antibody; also called S5B8人源化分子
With B7, the Kd worked out at 0.0486 nM in test [3] and 3.48 nM in test [4].

B8: S5B8VH-h1+S5B8VK-h1 (antibody, human IgG1, V domains shown)
VH: B7 VH with G44R, M70I, T76A, V79A
VL: DVVMTQSPLSLPVTLGQPASISCRSSQSLVHSNGNTYLHWFQQRPGQSPRRLIYKVSNRFSGVPDRFSGSGSGTDFTLKISRVEAEDVGVYYCSQSTHVPLTFGQGTKLEIK
notes: as for B7
With B8, the Kd was 0.371 nM in test [3] and 13.6 nM in test [4].

B9: S5B8VH-h2+S5B8VK-h1 (antibody, human IgG1, V domains shown)
VH: B7 VH
VL: B8 VL
notes: as for B7
On to B9, for which the Kd was 0.406 nM in test [3] and 9.66 nM in test [4].

B10: S5B8VH-h1+S5B8VK-h2 (antibody, human IgG1, V domains shown)
VH: B7 VH with G44R, M70I, T76A, V79A
VL: B8 VL with V2I, S7T, L15P, Q17E, F41Y, Q42L, R44K, R50Q, R51L
notes: as for B7
With B10, the values for the Kd in test [3] and in test [4] were 0.0894 nM and 5.15 nM, respectively.

B11: S5D3 (mouse-human chimeric antibody, human IgG1) (antibody)
scFv: QVQLQQSGAELMKPGASVKISCKATGYTSSSYWIEWVKQRPGHGLEWIGEILPGSGSTNYNEKFKGKATFTADTSSNTAYMQLSSLTSEDSAVYYCARLYDNSYFDYWGQGTSLTVSSGGGGSGGGGSGGGGSDIVMTQSPSSMYASLGERVTITCKASQDINSYLSWFQQKPGKSPKTLIYRANRLVDGVPSRFSGSGSGQDYSLTISSLEYEDMGIYYCLQYDEFPYTFGGGTKLEMK
notes: as for B1
As for B11, in test [1], the binding result is reported as “no binding”.

Broadly, the Kd is the free concentration of one partner at which half of the binding sites on the other are occupied at equilibrium, for simple one-to-one binding.

The values are drawn from patent CN108752475A (BEIJING WISDOMAB BIOTECHNOLOGY CO LTD, dated 2018).
